In patent US20240376180A1 (DEUTSCHES ZENTRUM FUR NEURODEGENERATIVE ERKRANKUNGEN E V …, published 2024):

T1: Fc fusion protein of the RBD-SD1 region of HCoV-HKU1 (HCoV-HKU1, UniProt Q5MQD0 310-677)
T1 construct: domain: RBD-SD1 region
T1 sequence: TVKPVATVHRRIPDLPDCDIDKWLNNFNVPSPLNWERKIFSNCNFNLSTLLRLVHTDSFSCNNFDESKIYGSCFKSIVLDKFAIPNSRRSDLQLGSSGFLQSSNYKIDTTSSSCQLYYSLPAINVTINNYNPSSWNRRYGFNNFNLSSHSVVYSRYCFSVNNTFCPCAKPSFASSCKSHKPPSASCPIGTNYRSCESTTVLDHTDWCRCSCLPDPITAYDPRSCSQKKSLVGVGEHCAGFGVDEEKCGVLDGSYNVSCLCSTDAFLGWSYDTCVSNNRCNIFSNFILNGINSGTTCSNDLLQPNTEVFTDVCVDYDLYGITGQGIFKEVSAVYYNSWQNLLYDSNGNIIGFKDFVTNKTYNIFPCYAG

T2: Fc fusion protein of the RBD-SD1 region of MERS-CoV (MERS-CoV, UniProt K9N5Q8 367-655)
T2 sequence: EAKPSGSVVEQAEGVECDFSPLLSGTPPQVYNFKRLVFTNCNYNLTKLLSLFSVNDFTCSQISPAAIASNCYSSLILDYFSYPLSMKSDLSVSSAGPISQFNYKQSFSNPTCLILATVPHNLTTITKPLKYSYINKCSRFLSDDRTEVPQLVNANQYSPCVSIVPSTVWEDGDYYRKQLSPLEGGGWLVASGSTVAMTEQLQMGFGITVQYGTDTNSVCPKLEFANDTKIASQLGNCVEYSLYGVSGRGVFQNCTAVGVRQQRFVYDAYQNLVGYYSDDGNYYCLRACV

T3: Fc fusion protein of the RBD-SD1 region of HCoV-OC43 (HCoV-OC43, UniProt P36334 318-675)
T3 construct: domain: RBD-SD1 region
T3 sequence: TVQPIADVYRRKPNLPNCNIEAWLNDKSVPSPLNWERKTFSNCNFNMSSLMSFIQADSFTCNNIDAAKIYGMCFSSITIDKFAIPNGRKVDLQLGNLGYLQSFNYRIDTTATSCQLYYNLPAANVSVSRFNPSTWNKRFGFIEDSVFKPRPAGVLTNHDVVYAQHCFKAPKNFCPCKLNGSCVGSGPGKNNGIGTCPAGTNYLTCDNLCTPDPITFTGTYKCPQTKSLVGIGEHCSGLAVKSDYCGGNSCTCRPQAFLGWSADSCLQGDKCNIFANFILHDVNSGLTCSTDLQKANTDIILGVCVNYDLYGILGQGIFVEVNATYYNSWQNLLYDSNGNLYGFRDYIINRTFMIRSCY

B1: HL CV07-315 (antibody, V domains shown)
VH: EVQLVESGGGLVQPGRSLRLSCAASGFTFDDYAMHWVRQAPGKGLEWVSGISWNSGSIGYADSVKGRFTISRDNAKNSLYLQMNSLRAEDTALYYCAKDFLWDLHPPRYYGMDVWGQGTTVTVSS
VL: QSVLTRPPSVSAAPGQKVTISCSGSSSNIGNNYVSWYQQLPGTAPKLLIYENNKRPSGIPDRFSGSKSGTSATLGITGLQTGDEADYYCGTWDSSLNGVFGGGTKLTVLG
B2: HK CV38-142 (antibody, V domains shown)
VH: EVQLVQSGAEVKKPGESLKISCQGSGYSFTSYWIGWVRQMPGKGLEWMGIIYPGESDTRYSSSFQGHVTISADKSISTAYLQWSSLKASDTAMYYCARIRGVYSSGWIGGDYWGQGTLVTVSS
VL: not shown
B3: HL CV07-283 (antibody, V domains shown)
VH: QVQLVQSGAEVKKPGASAKVSCKASGYTFTGYYIHWVRQAPGQGLEWMGLINPISGGTNYAQKFQDRVTMTRDTSISTAYMELSRLRSDDTAVYYCVRGPFYYDSSGPLGGMDVWGQGTTVTVSS
VL: QSALTQPASVSGSPGQSITISCTGTSGDVGGYNYVSWYQQHPGKAPKLMIYEVSNRPSGVSNRFSGSKSGNTASLTISGLQAEDEADYYCSSYTSSSTYVFGTGTKVTVLG
B4: HL CV07-250 (antibody, V domains shown)
VH: QVQLVQSEAEVKEPGASVEVSCKASGYNFTNFAISWVRQAPGQGLEWMGWISGYNGDTNSAQKFLGRVTMTTDTSTTTAYMELRSLRSDDTAVYYCAGSDNYGFPYNGMDVWGQGTTVTVSS
VL: QSALTQPPSASGSPGQSVTISCTGTSSDLGAYHFVTWYQHYPGKAPKVMIYGVRKRPSGVPDRFSGSKSGNTASLTVSGLQDEDEADYYCSSYAGNNDFVFGGGTKLTVLS
B5: HK CV07-287 (antibody, V domains shown)
VH: QVQLVQSGPEVKKPGTSVKVSCKASGFTFTSSAMQWVRQARGQRLEWIGWIVVGSGNTNYAQKFQERVTITRDMSTSTAYMELSSLRSEDTAVYYCAAPYCSSTNCYDAFDIWGQGTMVTVSS
VL: not shown

Tests used:
[1] = target: T1, Fc fusion protein of the RBD-SD1 region …; test: ELISA on captured RBD-SD1-Fc
[2] = target: T2, Fc fusion protein of the RBD-SD1 region …; test: ELISA on captured RBD-SD1-Fc
[3] = target: T3, Fc fusion protein of the RBD-SD1 region …; test: ELISA on captured RBD-SD1-Fc
[4] = target: Fc fusion protein of the RBD-SD1 region of SARS-CoV (SARS-CoV, UniProt P59594 306-577); test: ELISA on captured RBD-SD1-Fc
[5] = target: T4, Spike protein of authentic SARS-CoV-2 (Munich isolate 984) (SARS-CoV-2, UniProt P0DTC2 14-1273); test: cell-based or functional assay; parameters: IC90 Neutralizing Assay: unit not given beside the values
[6] = target: T4, Spike protein of authentic SARS-CoV-2 …; test: cell-based or functional assay
[7] = target: beta-2 microglobulin (Homo sapiens (Human), UniProt P61769 21-119); test: routine laboratory ELISA
[8] = target: SARS-CoV-2 S protein-RBD-mFc (SARS-CoV-2, UniProt P0DTC2 319-537)
[9] = target: SARS-CoV spike on S-pseudotyped MLV virions (SARS-CoV); test: cell-based or functional assay
[10] = target: SARS-CoV-2 spike on S-pseudotyped MLV virions (SARS-CoV-2, UniProt P0DTC2 14-1255); test: cell-based or functional assay

Sequence of beta-2 microglobulin (P61769 21-119 limits assumed): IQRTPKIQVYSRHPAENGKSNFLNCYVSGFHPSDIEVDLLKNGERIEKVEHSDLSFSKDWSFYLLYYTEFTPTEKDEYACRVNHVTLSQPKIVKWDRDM

Binder | binding result [1] | binding result [2] | binding result [3] | binding result [4] | IC50 Neutralizing Assay [5] [µg/mL] | IC50 (PRNT, authentic SARS-CoV-2) [6] [µg/mL] | binding result [7] | Kd [8] [nM] | pseudovirus neutralization assay, potency (IC50) [9] [µg/mL] | pseudovirus neutralization assay, potency (IC50) [10] [µg/mL] | IC90 Neutralizing Assay [5]
B1 | no binding (tested: 1 µg/ml) | no binding (tested: 1 µg/ml) | no binding (tested: 1 µg/ml) | no binding (tested: 1 µg/ml) | ~0.05 | 0.0249 | no binding (tested: 50 µg/ml) | 0.0112 |  |  | 
B2 |  |  |  |  | ~0.05 | 0.0232 | no binding (tested: 50 µg/ml) |  | 1.4 | 3.5 | 
B3 | no binding (tested: 1 µg/ml) | no binding (tested: 1 µg/ml) | no binding (tested: 1 µg/ml) | no binding (tested: 1 µg/ml) | ~0.05 | 0.0169 | no binding (tested: 50 µg/ml) | 0.0475 |  |  | > 500
B4 | no binding (tested: 1 µg/ml) | no binding (tested: 1 µg/ml) | no binding (tested: 1 µg/ml) | no binding (tested: 1 µg/ml) |  | 0.0035 | no binding (tested: 50 µg/ml) | 0.0564 |  |  | > 500
B5 | no binding (tested: 1 µg/ml) | no binding (tested: 1 µg/ml) | no binding (tested: 1 µg/ml) | no binding (tested: 1 µg/ml) |  | 0.0417 | no binding (tested: 50 µg/ml) | 0.16 |  |  | > 500
